Legend:
[1] = target: CTD2* (A3G-CTD2 E259A), His-tagged (Homo sapiens, UniProt Q9HC16 191-384, P200A;L234K;N236A;C243A;P247K;E259A;F310K;Q318K;C321A;Q322A;C356A); test: MST; Zn2+ (20 uM ZnCl2); 20 mM Bis-Tris pH 6.5, 100 mM NaCl, 1 mM DTT, 0.002% Tween 20; ZnCl2 20 uM (MST) or 10 uM (EMSA); MST incubated at 4 C, measured at room temperature; EMSA incubated 1 h at room temperature, gel at 4 C; settings: protein: recombinant; tags: poly-His (pET-28a), RED-tris-NTA dye
[2] = target: CTD2* (A3G-CTD2 E259A), GST-purified (Homo sapiens, UniProt Q9HC16 191-384, P200A;L234K;N236A;C243A;P247K;E259A;F310K;Q318K;C321A;Q322A;C356A); test: competition; EMSA; unlabeled competitor 25-2500 nM against N2; band not affected; 20 mM Bis-Tris pH 6.5, 100 mM NaCl, 1 mM DTT, 0.002% Tween 20; ZnCl2 20 uM (MST) or 10 uM (EMSA); MST incubated at 4 C, measured at room temperature; EMSA incubated 1 h at room temperature, gel at 4 C; settings: protein: recombinant; tags: GST removed by PreScission protease (pGEX6P-1)
Chain of CTD2* (A3G-CTD2 E259A), GST-purified (Q9HC16 191-384 P200A/L234K/N236A/C243A/P247K/E259A/F310K/Q318K/C321A/Q322A/C356A): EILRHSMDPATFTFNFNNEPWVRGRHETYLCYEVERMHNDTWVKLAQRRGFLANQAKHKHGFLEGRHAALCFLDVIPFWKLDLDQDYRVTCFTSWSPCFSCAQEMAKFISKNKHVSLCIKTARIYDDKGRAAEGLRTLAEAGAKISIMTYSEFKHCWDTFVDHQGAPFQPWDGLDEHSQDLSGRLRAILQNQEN

Chain of CTD2* (A3G-CTD2 E259A), His-tagged (Q9HC16 191-384 P200A/L234K/N236A/C243A/P247K/E259A/F310K/Q318K/C321A/Q322A/C356A): as above

With AATCCCAAA (ssDNA) [9nt substrate ssDNA] as the binder, how does the Kd [1] read?
Its Kd is 55 ± 12 µM.

With AAUCCCAAA (ssRNA) [9nt RNA] as the binder, how does the Kd [1] read?
The Kd was 1500 ± 500 µM.

Does AAAAAAAAA (ssDNA) [9nt polyA] bind [2]?
Result: no binding
